# Measurements from patent US20240309102A1 (LENTIGEN TECHNOLOGY, published 2024).
# T1: recombinant human CD123-Fc (human, UniProt P26951 19-305, limits assumed)
# T1 construct: Panning and sorting antigen; not shown: Fc part
# T1 sequence (looked up): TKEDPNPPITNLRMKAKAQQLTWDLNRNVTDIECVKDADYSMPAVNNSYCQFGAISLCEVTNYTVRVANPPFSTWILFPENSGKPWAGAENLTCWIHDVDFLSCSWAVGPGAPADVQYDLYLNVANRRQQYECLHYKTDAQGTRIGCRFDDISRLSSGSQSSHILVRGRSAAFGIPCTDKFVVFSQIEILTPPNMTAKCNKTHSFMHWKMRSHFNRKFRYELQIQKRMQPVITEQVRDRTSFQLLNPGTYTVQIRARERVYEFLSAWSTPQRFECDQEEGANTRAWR
# Target: T1, recombinant human CD123-Fc
# Test: yeast display; 3 rounds of MACS and a FACS sort (top 1%) with CD123-Fc; clone sequenced from the sorted pool, not tested singly
# Procedure: A large yeast display human naive single chain variable fragment (ScFv) antibody library was used to isolate anti-human CD123 antibodies described herein. The library was constructed using a collection of human antibody gene repertoires from more than 60 individuals. Three rounds of magnetic-activated cell sorting (MACS) were performed to enrich human ScFv binders to the recombinant human CD123-Fc. For the first round of yeast library panning, the yeast display ScFv library (5×10¹⁰ cells) was incubated with 5 μg/mL CD123-Fc in 15 ml PBSA (consisting of 0.1% Bovine Serum Albumin (BSA) in Dulbecco's phosphate-buffered saline (PBS) buffer), at room temperature on a rotator for 1.5 hours. After two times washing with 25 ml PBSA, the yeast library mix was incubated with 100 μL Protein G microbeads (Miltenyi Biotec) at room temperature on a rotator for 30 minutes. After one time washing, the library mix was resuspended in 50 ml of PBSA and loaded onto the MACS cell separation column (LS column). After three times washing with 10 ml PBSA. […] These eluted yeast cells were combined and then resuspended into 50 ml SDCAA medium (20 g D-glucose, 6.7 g BD Difco™ Yeast Nitrogen Base without Amino Acids, 5 g Bacto™ Casamino Acids, 5.4 g Na2·HPO4, and 8.56 g NaH2PO4·H2O in 1 L water) and amplified with shaking at 225 rpm at 30° C. for 20 hours. The amplified pool was then induced in SGCAA medium (consisting of the same composition of SDCAA medium, but containing galactose instead of glucose), with shaking at 225 rpm at 30° C. for another 16 hours and used for next round of panning. The same process was repeated two more times to enrich the CD123-Fc specific binders.
# To further enrich the binders with higher affinity and better specificity, FACS based sorting was employed to isolate the strongest binders from the pool. The induced pool was incubated with 1 μg/ml of CD123-Fc at room temperature for 1 hour and then stained with Anti-c-Myc-Alexa 488 and Goat anti-Hu-Fc PE conjugates, the top 1% of the pool with the highest PE versus FITC signal was gated and sorted. The sorted pool was amplified in SDCAA medium and yeast plasmid DNA was extracted and transformed into bacterial for single clone DNA sequencing. 40 random clones were sequenced and 36 unique sequences were identified.
row,Binder,binding result
1,CD123 hScFv binder M12306 (scFv) scFv: EVQLVQSGSELKKPGASVKVSCKASGGTFSSYAISWVRQAPGQGLEWMGGIIPIFGTANYAQKFQGRVTITADESTSTAYMELSSLRSEDTAVYYCASTARRGWDTAGPLDYWGQGTLVTVSSGGGGSGGGGSGGGGSDIQMTQSPSSLSASVGDRVTIACRASQTISRYLNWYQQKPGKAPKLLIYAASSLQSGVSSRFSGSGSGTEFTLTISSLQPEDFATYFCQQTYSPPITFGQGTRLEIK,binds
2,CD123 hScFv binder M12313 (scFv) scFv: EVQLVQSGAEVKKPGSSVKVSCKASGGTFSSYAISWVRQAPGQGLEWMGGIIPIFGTANYAQKFQGRVTITADESTSTAYMELSSLRSEDTAVYYCASQKGGGWSIDAFDIWGQGTMVTVSSGGGGSGGGGSGGGGSQSVLTQPPSVSAASGQRVTISCSGSSSNIGNNYASWYQQLPGMAPKLLIYEDNKRPSGISDRFSGSQSGTSASLAITGLQAEDEADYYCQSYDSSLSGDVVFGGGTKLTVLG,binds
3,CD123 hScFv binder M12316 (scFv) scFv: EVQLVESGGGLVQPGGSLRLSCAASGFTFSSYAMHWVRQAPGKGLEWVSSISSSSSYIYYADSVKGRFTISRDNSKNTLYLQMNSLRAEDTAVYYCARDWDDAFDIWGQGTTVTVSSGGGGSGGGGSGGGGSDIQMTQSPSSLSASVGDRVTITCQASQDISNYLNWYQQKPGKAPKLLIYDASNLETGVPSRFSGSGSGTDFTFTISSLQPEDIATYYCQQYDNLPLTFGGGTKLEIK,binds
4,CD123 hScFv binder M12305 (scFv) scFv: QVQLVQSGAEVKKPGSSVKVSCKASGGTFSSYAISWVRQAPGQGLEWMGGIIPIFGTANYAQKFQGRVTITTDESTSTAYMELSSLRSEDTAVYYCARRGWGGFSSGSAFDIWGQGTMVTVSSGGGGSGGGGSGGGGSNFMLTQPHSVSESPGNTVTISCTGSSGTIGSNFVQWYQQSPGRAPTLLIYEDTKRPSGVPPRFAGSVDSSSNSASLTISGLKTEDEADYYCQSYDSSNWVFGGGTKLTVLG,binds
5,CD123 hScFv binder M12303 (scFv) scFv: EVQLVETGAEVKKPGASVKVSCKASGYTFTTYYVHWVRQAPGQGLEWMGIINPSGGSTSYAQKFQGRVTMTRDTSTSTVYMELSSLRSEDTAVYYCARDGGLGGYEAWGQGTLVTVSSGGGGSGGGGSGGGGSDIQLTQSPSALSASAGDRVTITCQASQDISNYLNWYQQKPGKAPKLLIYDASNLERGVPSRFSGSGSGTEFTFTISSLQPEDIATYYCQQYDNLPITFGQGTRLEIK,binds
6,CD123 hScFv binder M12311 (scFv) scFv: EVQLVQSGAEVKKPGSSVKVSCKASGGTFSSYAISWVRQAPGQGLEWMGGIIPIFGTANYAQKFQGRVTITADESTSTAYMELSSLRSEDTAVYYCARARLGGAFDIWGQGTMVTVSSGGGGSGGGGSGGGGSQSVLTQPPSVSAAPGQKVTISCSGGSSNIGNHYVSWYQQLPGAAPKLLIYDDNKRPSGIPDRFSGSRSGTSATLGITGLQSGDEADYYCGTWDSSLAAHVFGTGTKVTVLG,binds
7,CD123 hScFv binder M12315 (scFv) scFv: QVQLQQWGAGLLKPSETLSLTCAVYGGSFSGYYWSWIRQPPGKGLEWIGEINHSGSTNYNPSLKSRVTISVDTSKNQFSLKLSSVTAADTAVYYCARGQVKYSSSLGYWGQGTLVTVSSGGGGSGGGGSGGGGSQSVLTQPPSVSAAPGQKVTISCSGSSSNIGNNFVSWYQQLPGTAPKLLIYEDNKRPSGIPDRFSGSRSGTSATLGITGLQTGDEADYYCGTWDSSLGAWVFGGGTKLTVLG,binds
8,CD123 hScFv binder M12309 (scFv) scFv: EVQLVQSGAEVKKPGATVKISCKVSGYTFTDYYMHWVQQAPGKGLEWIGLVDPEDGETIYAEKFQGRVTITADTSTDTAYMELSSLRSEDTAVYYCATAPLGEVGAAVDYWGQGTLVTVSSGGGGSGGGGSGGGGSHVILTQPPSVSAAPGQEVSISCSGSDANIGTNLVSWYQHVPGTAPKLLIYENSKRPSGIPARFSSSQSGTSATLAISGLQSGDEAIYYCLTWDRTLSGKIFGGGTQLTVLG,binds

# Next, values leading:
row,binding result,Binder
1,binds,CD123 hScFv binder M12317 (scFv) scFv: QVQLVETGGGLVKPGGSLRLSCAASGFTFSSYSMNWVRQAPGKGLEWVSSISSSSSYIYYADSVKGRFTISRDNAKNSLYLQMNSLRAEDTAVYYCARDGDFWSGAIDYWGQGTLVTVSSGGGGSGGGGSGGGGSDIQLTQSPSSLSASVGDRVTITCQASQDISNYLNWYQQKPGKAPKLLIYDASNLETGVPSRFSGSGSGTDFTFTISSLQPEDIATYYCQQYDNLPLFGGGTKLEIK
2,binds,CD123 hScFv binder M12314 (scFv) scFv: EVQLVQSGAEVKKPGSSVKVSCKASGGTFSSYAISWVRQAPGQGLEWMGGIIPIFGTANYAQKFQGRVTITADESTSTAYMELSSLRSEDTAVYYCARVGCSGGSCYPDYWGQGTLVTVSSGGGGSGGGGSGGGGSEIVLTQSPSSLSASVGDRVTITCQASQDISNYLNWYQQKPGKAPKLLIYDASNLETGVPSRFSGSGSGTDFTFTISSLQPEDIATYYCQQYDNLPLTFGGGTKLDIK
3,binds,CD123 hScFv binder M12308 (scFv) scFv: EVQLVETGAEVKNPGSSVKVSCKASGGTLSNYAISWVRQAPGKGLEWMGGIIPIFGTANYAQKFQGRVTITADESTSTAYMELSSLRSEDTAVYYCARRSSWYPEGCFQHWGQGTLVTVSSGGGGSGGGGSGGGGSDIQLTQSPSSLSASTGDRVTITCRASQGISSYLAWYQQKPGKAPKLLIYAASTLQSGVPSRFSGSGSGTDFTLTISCLQSEDFATYYCQQYYSYPLTFGGGTKLDIK
4,binds,CD123 hScFv binder M12318 (scFv) scFv: EVQLVQSGGGVVQPGRSLRLSCAASGFTFSSYSMNWVRQAPGKGLEWVSSISSSSSYIYYADSVKGRFTISRDNAKNTLYLQMNSLRAEDTAVYYCARDNWGSLDYWGQGTLVTVSSGGGGSGGGGSGGGGSDIQMTQSPSSLSASVGDRVTITCQASQDISNYLNWYQQKPGKAPKLLIYDASNLETGVPSRFSGSGSGTDFTFTISSLQPEDIATYYCQQYDNLPHMYTFGQGTKLEIK
